Reference: IntAct's records for PubMed 16154084

B1: Interferon regulatory factor 3 (Homo sapiens), Q14653 (parent)
chain: MGTPKPRILPWLVSQLDLGQLEGVAWVNKSRTRFRIPWKHGLRQDAQQEDFGIFQAWAEATGAYVPGRDKPDLPTWKRNFRSALNRKEGLRLAEDRSKDPHDPHKIYEFVNSGVGDFSQPDTSPDTNGGGSTSDTQEDILDELLGNMVLAPLPDPGPPSLAVAPEPCPQPLRSPSLDNPTPFPNLGPSENPLKRLLVPGEEWEFEVTAFYRGRQVFQQTISCPEGLRLVGSEVGDRTLPGWPVTLPDPGMSLTDRGVMSYVRHVLSCLGGGLALWRAGQWLWAQRLGHCHTYWAVSEELLPNSGHGPDGEVPKDKEGGVFDLGPFIVDLITFTEGSGRSPRYALWFCVGESWPQDQPWTKRLVMVKVVPTCLRALVEMARVGGASSLENTVDLHISNSHPLSLTSDQYKAYLQDLVEGMDFQGPGES

Variants of: B1
Settings: with cbp_human CREBBP

Variant | effect of a mutation on the interaction
E201A;E203A | disrupting interaction
S221A | disrupting interaction

The next lines start with the values.

effect of a mutation on the interaction | Variant
disrupting interaction | C371A;L375A;M378A
disrupting interaction | L322A;P324A;I326A;V327A;L329A;I330A
